Laboratory results as given in publication PMC8450086, “Cooperative DNA binding mediated by KicGAS/ORF52 oligomerization allows inhibition of DNA-induced phase separation and activation of cGAS”.

What was measured:
KicGAS [1] = target: T1, KicGAS (Kaposi sarcoma-associated herpesvirus …, UniProt Q2HR80 1-131); test: fluorescence polarization; Hill n 2.1; EMSA: 20 mM Tris-HCl pH 7.4, 150 mM NaCl, 10% glycerol, on ice, 20 nM FAM-DNA, gel at 4 C; FP: 400 pg/ul FAM-DNA, buffer and temperature not stated; Hill fits; details: protein: recombinant; tags: Avi-His6-SUMO removed (tag-free); label: 5' FAM sense strand; blunt
T1 sequence: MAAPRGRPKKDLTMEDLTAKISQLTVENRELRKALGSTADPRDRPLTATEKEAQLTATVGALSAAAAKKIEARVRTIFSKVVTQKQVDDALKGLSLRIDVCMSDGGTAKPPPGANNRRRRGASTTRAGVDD

KicGAS [2] = target: T1, KicGAS; test: EMSA; Hill n 2.20; EMSA: 20 mM Tris-HCl pH 7.4, 150 mM NaCl, 10% glycerol, on ice, 20 nM FAM-DNA, gel at 4 C; FP: 400 pg/ul FAM-DNA, buffer and temperature not stated; Hill fits; details: protein: recombinant; tags: Avi-His6-SUMO removed (tag-free); label: 5' FAM sense strand; blunt
KicGAS [3] = target: T1, KicGAS; test: fluorescence polarization; Hill n 1.84; EMSA: 20 mM Tris-HCl pH 7.4, 150 mM NaCl, 10% glycerol, on ice, 20 nM FAM-DNA, gel at 4 C; FP: 400 pg/ul FAM-DNA, buffer and temperature not stated; Hill fits; details: protein: recombinant; tags: Avi-His6-SUMO removed (tag-free); label: 5' FAM sense strand; blunt
KicGAS [4] = target: T1, KicGAS; test: EMSA; Hill n 1.95; EMSA: 20 mM Tris-HCl pH 7.4, 150 mM NaCl, 10% glycerol, on ice, 20 nM FAM-DNA, gel at 4 C; FP: 400 pg/ul FAM-DNA, buffer and temperature not stated; Hill fits; details: protein: recombinant; tags: Avi-His6-SUMO removed (tag-free); label: 5' FAM sense strand; blunt
KicGAS [5] = target: T1, KicGAS; test: fluorescence polarization; Hill n 2.55; EMSA: 20 mM Tris-HCl pH 7.4, 150 mM NaCl, 10% glycerol, on ice, 20 nM FAM-DNA, gel at 4 C; FP: 400 pg/ul FAM-DNA, buffer and temperature not stated; Hill fits; details: protein: recombinant; tags: Avi-His6-SUMO removed (tag-free); label: 5' FAM sense strand; blunt
KicGAS [6] = target: T1, KicGAS; test: fluorescence polarization; Hill n 0.90; EMSA: 20 mM Tris-HCl pH 7.4, 150 mM NaCl, 10% glycerol, on ice, 20 nM FAM-DNA, gel at 4 C; FP: 400 pg/ul FAM-DNA, buffer and temperature not stated; Hill fits; details: protein: recombinant; tags: Avi-His6-SUMO removed (tag-free); label: 5' FAM
KicGAS [7] = target: T1, KicGAS; test: fluorescence polarization; Hill n 1.33; EMSA: 20 mM Tris-HCl pH 7.4, 150 mM NaCl, 10% glycerol, on ice, 20 nM FAM-DNA, gel at 4 C; FP: 400 pg/ul FAM-DNA, buffer and temperature not stated; Hill fits; details: protein: recombinant; tags: Avi-His6-SUMO removed (tag-free); label: 5' FAM
KicGAS [8] = target: T1, KicGAS; test: fluorescence polarization; Hill n 1.50; EMSA: 20 mM Tris-HCl pH 7.4, 150 mM NaCl, 10% glycerol, on ice, 20 nM FAM-DNA, gel at 4 C; FP: 400 pg/ul FAM-DNA, buffer and temperature not stated; Hill fits; details: protein: recombinant; tags: Avi-His6-SUMO removed (tag-free); label: 5' FAM
KicGAS [9] = target: T1, KicGAS; test: fluorescence polarization; Hill n 1.85; EMSA: 20 mM Tris-HCl pH 7.4, 150 mM NaCl, 10% glycerol, on ice, 20 nM FAM-DNA, gel at 4 C; FP: 400 pg/ul FAM-DNA, buffer and temperature not stated; Hill fits; details: protein: recombinant, tags: Avi-His6-SUMO removed (tag-free)
KicGAS [10] = target: T1, KicGAS; test: fluorescence polarization; Hill n 2.15; EMSA: 20 mM Tris-HCl pH 7.4, 150 mM NaCl, 10% glycerol, on ice, 20 nM FAM-DNA, gel at 4 C; FP: 400 pg/ul FAM-DNA, buffer and temperature not stated; Hill fits; details: protein: recombinant; tags: Avi-His6-SUMO removed (tag-free); label: 5' FAM
KicGAS [11] = target: T1, KicGAS; test: fluorescence polarization; Hill n 2.21; EMSA: 20 mM Tris-HCl pH 7.4, 150 mM NaCl, 10% glycerol, on ice, 20 nM FAM-DNA, gel at 4 C; FP: 400 pg/ul FAM-DNA, buffer and temperature not stated; Hill fits; details: protein: recombinant; tags: Avi-His6-SUMO removed (tag-free); label: 5' FAM
KicGAS [12] = target: T1, KicGAS; test: fluorescence polarization; Hill n 2.24; EMSA: 20 mM Tris-HCl pH 7.4, 150 mM NaCl, 10% glycerol, on ice, 20 nM FAM-DNA, gel at 4 C; FP: 400 pg/ul FAM-DNA, buffer and temperature not stated; Hill fits; details: protein: recombinant, tags: Avi-His6-SUMO removed (tag-free)
KicGAS [13] = target: T1, KicGAS; test: fluorescence polarization; Hill n 1.69; EMSA: 20 mM Tris-HCl pH 7.4, 150 mM NaCl, 10% glycerol, on ice, 20 nM FAM-DNA, gel at 4 C; FP: 400 pg/ul FAM-DNA, buffer and temperature not stated; Hill fits; details: protein: recombinant; tags: Avi-His6-SUMO removed (tag-free); label: 5' FAM sense strand; blunt
KicGAS [14] = target: T1, KicGAS; test: fluorescence polarization; EMSA: 20 mM Tris-HCl pH 7.4, 150 mM NaCl, 10% glycerol, on ice, 20 nM FAM-DNA, gel at 4 C; FP: 400 pg/ul FAM-DNA, buffer and temperature not stated; Hill fits; details: protein: recombinant; tags: Avi-His6-SUMO removed (tag-free); label: 5' FAM sense strand; blunt
KicGAS [15] = target: T1, KicGAS; test: fluorescence polarization; Hill n 2.33; EMSA: 20 mM Tris-HCl pH 7.4, 150 mM NaCl, 10% glycerol, on ice, 20 nM FAM-DNA, gel at 4 C; FP: 400 pg/ul FAM-DNA, buffer and temperature not stated; Hill fits; details: protein: recombinant; tags: Avi-His6-SUMO removed (tag-free); label: 5' FAM sense strand; blunt
KicGAS [16] = target: T1, KicGAS; test: fluorescence polarization; Hill n 2.31; EMSA: 20 mM Tris-HCl pH 7.4, 150 mM NaCl, 10% glycerol, on ice, 20 nM FAM-DNA, gel at 4 C; FP: 400 pg/ul FAM-DNA, buffer and temperature not stated; Hill fits; details: protein: recombinant; tags: Avi-His6-SUMO removed (tag-free); label: 5' FAM sense strand; blunt
KicGAS [17] = target: T1, KicGAS; test: fluorescence polarization; Hill n 2.05; EMSA: 20 mM Tris-HCl pH 7.4, 150 mM NaCl, 10% glycerol, on ice, 20 nM FAM-DNA, gel at 4 C; FP: 400 pg/ul FAM-DNA, buffer and temperature not stated; Hill fits; details: protein: recombinant; tags: Avi-His6-SUMO removed (tag-free); label: 5' FAM sense strand; blunt
KicGAS [18] = target: T1, KicGAS; test: fluorescence polarization; Hill n 1.70; EMSA: 20 mM Tris-HCl pH 7.4, 150 mM NaCl, 10% glycerol, on ice, 20 nM FAM-DNA, gel at 4 C; FP: 400 pg/ul FAM-DNA, buffer and temperature not stated; Hill fits; details: protein: recombinant; tags: Avi-His6-SUMO removed (tag-free); label: 5' FAM sense strand; blunt
KicGAS [19] = target: T1, KicGAS; test: fluorescence polarization; Hill n 1.88; EMSA: 20 mM Tris-HCl pH 7.4, 150 mM NaCl, 10% glycerol, on ice, 20 nM FAM-DNA, gel at 4 C; FP: 400 pg/ul FAM-DNA, buffer and temperature not stated; Hill fits; details: protein: recombinant; tags: Avi-His6-SUMO removed (tag-free); label: 5' FAM sense strand; blunt
KicGAS [20] = target: T1, KicGAS; test: fluorescence polarization; Hill n 2.36; EMSA: 20 mM Tris-HCl pH 7.4, 150 mM NaCl, 10% glycerol, on ice, 20 nM FAM-DNA, gel at 4 C; FP: 400 pg/ul FAM-DNA, buffer and temperature not stated; Hill fits; details: protein: recombinant; tags: Avi-His6-SUMO removed (tag-free); label: 5' FAM sense strand; blunt

B1: ISD45 (dsDNA)
DNA 1: TACAGATCTACTAGTGATCTATGACTGATCTGTACATGATCTACA
DNA 2: TGTAGATCATGTACAGATCAGTCATAGATCACTAGTAGATCTGTA
Binder B1 has a Kd (KicGAS [1]) of 150 ± 20 nM and a Kd (KicGAS [2]) of 120 ± 10 nM.

B2: ISD25 (dsDNA)
DNA 1: CTAGTGATCTATGACTGATCTGTAC
DNA 2: GTACAGATCAGTCATAGATCACTAG
In the case of B2, the Kd (KicGAS [3]) is reported as 440 ± 30 nM and the Kd (KicGAS [4]) is reported as 380 ± 30 nM.

B3: KS90 (dsDNA)
DNA 1: TCGTCTCGCCTGTCAAATCGTCTATGTTTTTCGGCGCGTTGTGCCAATATAACTCTAGAAACTAATACTGTATCTGTCAGCAGTACTACA
DNA 2: TGTAGTACTGCTGACAGATACAGTATTAGTTTCTAGAGTTATATTGGCACAACGCGCCGAAAAACATAGACGATTTGACAGGCGAGACGA
Work on B3 yielded a Kd (KicGAS [5]) of 100 ± 10 nM.

Binder ATCTATGACTGATCTGTACA (ssDNA) [ssISD20] has a Kd (KicGAS [6]) of 5080 ± 400 nM.

In the case of CTAGTGATCTATGACTGATCTGTAC (ssDNA) [ssISD25], the Kd (KicGAS [7]) is reported as 1580 ± 220 nM.

ATCTACTAGTGATCTATGACTGATCTGTAC (ssDNA) [ssISD30] gave a Kd (KicGAS [8]) of 720 ± 50 nM.

In the case of TACAGATCTACTAGTGATCTATGACTGATCTGTACATGATCTACA (ssDNA) [ssISD45], the Kd (KicGAS [9]; label: 5' FAM) is reported as 260 ± 10 nM.

B4: ssHSV60 (ssDNA)
DNA: TAAGACACGATGCGATAAAATCTGTTTGTAAAATTTATTAAGGGTACAAATT
Binder B4 has a Kd (KicGAS [10]) of 170 ± 10 nM.

B5: ssVACV72 (ssDNA)
DNA: ATCCATCAGAAAGAGGTTTAATATTTTTGTGAGACCATCGAAGAGAGAAAGAGATAAAACTTTTTTACGACT
B5 showed a Kd (KicGAS [11]) of 130 ± 10 nM.

B6: ssKS90 (ssDNA)
DNA: TCGTCTCGCCTGTCAAATCGTCTATGTTTTTCGGCGCGTTGTGCCAATATAACTCTAGAAACTAATACTGTATCTGTCAGCAGTACTACA
Binder B6 has a Kd (KicGAS [12]; label: 5' FAM) of 100 ± 10 nM.

B7: dsRNA45 (dsRNA)
RNA 1: UACAGAUCUACUAGUGAUCUAUGACUGAUCUGUACAUGAUCUACA
RNA 2: UGUAGAUCAUGUACAGAUCAGUCAUAGAUCACUAGUAGAUCUGUA
In the case of B7, the Kd (KicGAS [13]) is reported as 560 ± 50 nM.

B8: ISD12 (dsDNA)
DNA 1: ACTGATCTGTAC
DNA 2: GTACAGATCAGT
B8: no binding (KicGAS [14]).

B9: DNA-RNA hybrid 45 (DNA:RNA)
RNA: UACAGAUCUACUAGUGAUCUAUGACUGAUCUGUACAUGAUCUACA
DNA: TGTAGATCATGTACAGATCAGTCATAGATCACTAGTAGATCTGTA
For B9, the Kd (KicGAS [9]; label: 5' FAM sense strand (RNA), blunt) was 300 ± 20 nM.

B10: 0% GC (dsDNA)
DNA 1: ATTTAATAATAATTTATTAT
DNA 2: ATAATAAATTATTATTAAAT
B10 gave a Kd (KicGAS [15]) of 800 ± 50 nM.

B11: 30% GC (dsDNA)
DNA 1: ATATCGCTATAGATATCATC
DNA 2: GATGATATCTATAGCGATAT
B11 was tested, and the Kd (KicGAS [16]) was 1070 ± 60 nM.

B12: 90% GC (dsDNA)
DNA 1: CCGCCAGCCCGCGGGCTGGC
DNA 2: GCCAGCCCGCGGGCTGGCGG
B12 was tested, and the Kd (KicGAS [17]) was 1160 ± 80 nM.

B13: ISD20 (dsDNA)
DNA 1: ATCTATGACTGATCTGTACA
DNA 2: TGTACAGATCAGTCATAGAT
In the case of B13, the Kd (KicGAS [18]) is reported as 820 ± 80 nM.

B14: ISD30 (dsDNA)
DNA 1: ATCTACTAGTGATCTATGACTGATCTGTAC
DNA 2: GTACAGATCAGTCATAGATCACTAGTAGAT
With B14 the Kd (KicGAS [19]) was 290 ± 20 nM.

B15: HSV60 (dsDNA)
DNA 1: TAAGACACGATGCGATAAAATCTGTTTGTAAAATTTATTAAGGGTACAAATT
DNA 2: AATTTGTACCCTTAATAAATTTTACAAACAGATTTTATCGCATCGTGTCTTA
Binder B15 has a Kd (KicGAS [12]; label: 5' FAM sense strand, blunt) of 160 ± 10 nM.

B16: VACV72 (dsDNA)
DNA 1: ATCCATCAGAAAGAGGTTTAATATTTTTGTGAGACCATCGAAGAGAGAAAGAGATAAAACTTTTTTACGACT
DNA 2: AGTCGTAAAAAAGTTTTATCTCTTTCTCTCTTCGATGGTCTCACAAAAATATTAAACCTCTTTCTGATGGAT
Work on B16 yielded a Kd (KicGAS [20]) of 130 ± 10 nM.
